Assay results as given in article PMC5118228 (EJNMMI Research, 2016).
Where “and” joins values, the source holds several entries; their conditions need not be identical. Identical values can stand only once.

Tests used:
in vivo = assay: in vivo; set-up: species or system mice; details: male, athymic nu/nu, mouse, iv, 0.3 nmol, total radioactivity
Procedure: Mice were euthanized at 10 and 60 min p.i. […] Blood, organs, and femur-containing femur marrow were collected and counted as described previously. The uptake was expressed as percentage of injected activity per gram of tissue (%IA/g).

kidney = assay: Renal dose-effect relation (logistic regression, LD50); format: in vivo, mice; details: death before 90 days
Procedure: Dosimetry was performed according to the MIRD schema by using the spherical nodes S-factors from the Olinda/EXM software. S-factors were interpolated from the actual weight of the organs and tissue. All organs and tissue were assumed to be spherical with a density of […]. Mean radiation absorbed doses were obtained as a function-injected mass of peptide, assuming a homogeneous distribution in the tumor and organs. […] Owing to the short path length of α-particles, only the self-dose within each organ was included. The threshold for lethality was determined with renal absorbed dose and injected activity as indicators. Logistic regression analysis was used to determine the LD50 for presumed renal toxicity-related death.
Data analyses, graphs, and calculations were performed in Prism-5. Mann-Whitney t test was used to calculate the significance. The results of statistical tests were considered significant when P was <0.05. Biodistribution data were expressed as mean ± standard deviation (SD) and tumor volume data as mean ± standard error (SEM). Binary logistic analysis (forced entry method) was performed with SPSS software (IBM SPSS statistics, version 20).

In the case of C[C@@H](O)[C@H](NC(=O)[C@@H]1CSSC[C@H](NC(=O)[C@@H](Cc2ccccc2)NC(=O)CN2CCN(CC(=O)O)CCN(CC(=O)O)CCN(CC(=O)O)CC2)C(=O)N[C@@H](Cc2ccc(O)cc2)C(=O)N[C@H](Cc2c[nH]c3ccccc23)C(=O)N[C@@H](CCCCN)C(=O)N[C@@H]([C@@H](C)O)C(=O)N1)C(=O)O [^213Bi-DOTATATE, metal not drawn], the tissue uptake at 10 min (in vivo; renal uptake) is reported as 30.8 ± 5.8 %ID/g, the tissue uptake at 1 h (in vivo; renal uptake) is reported as 18.4 ± 1.8 %ID/g and the tissue uptake at 1 h (in vivo; stomach uptake) is reported as 1.6 ± 0.5 %ID/g. For the same compound, the “threshold LD5 kidney dose” value (kidney) was 11 ± 4 Gy and the “LD50 mean renal radiation absorbed dose” value (kidney; mice with and without L-lysine) was 20 Gy and 20 ± 8 Gy.
